In article PMC5670123, “The structural basis of proton driven zinc transport by ZntB” (Nature Communications, 2017):

Target: the molecule itself
Experiment: cryo-EM structure; single-particle cryo-EM of DDM-solubilized, purified EcZntB pre-treated with EDTA (apo), ~10 mg/ml, 50 mM Tris/HCl pH 8.0, 250 mM NaCl, 0.03% DDM; overall resolution 4.2 Å

B1: ZntB from Escherichia coli, full-length (natural protein, UniProt P64423 1-327, looked up)
chain: MEAIKGSDVNVPDAVFAWMLDGRGGVKPLENTDVIDEAHPCWLHLNYVHHDSAQWLATTPLLPNNVRDALAGESTRPRVSRLGEGTLITLRCINGSTDERPDQLVAMRVYMDGRLIVSTRQRKVLALDDVVSDLEEGTGPTDCGGWLVDVCDALTDHSSEFIEQLHDKIIDLEDNLLDQQIPPRGFLALLRKQLIVMRRYMAPQRDVYARLASERLPWMSDDQRRRMQDIADRLGRGLDEIDACIARTGVMADEIAQVMQENLARRTYTMSLMAMVFLPSTFLTGLFGVNLGGIPGGGWQFGFSIFCILLVVLIGGVALWLHRSKWL
notes: Zinc transporter ZntB of Escherichia coli (CorA metal ion transporter family), full-length; Homopentamer in DDM micelles, apo (pre-treated with EDTA); TEV protease (ProTev Plus) is described only for the proteoliposome transport assay, not for the cryo-EM sample; also called EcZntB; source: membrane vesicles solubilized in DDM, purified (Ni2+-sepharose, EDTA treatment, Superdex 200 SEC)
stoichiometry N: 5
